The text below walks through data of IntAct's records for PubMed 31515488.

The chains are these.
B1: Zinc finger protein 473 (Homo sapiens), Q8WTR7 (parent)
chain: MAEEFVTLKDVGMDFTLGDWEQLGLEQGDTFWDTALDNCQDLFLLDPPRPNLTSHPDGSEDLEPLAGGSPEATSPDVTETKNSPLMEDFFEEGFSQEIIEMLSKDGFWNSNFGEACIEDTWLDSLLGDPESLLRSDIATNGESPTECKSHELKRGLSPVSTVSTGEDSMVHNVSEKTLTPAKSKEYRGEFFSYSDHSQQDSVQEGEKPYQCSECGKSFSGSYRLTQHWITHTREKPTVHQECEQGFDRNASLSVYPKTHTGYKFYVCNEYGTTFSQSTYLWHQKTHTGEKPCKSQDSDHPPSHDTQPGEHQKTHTDSKSYNCNECGKAFTRIFHLTRHQKIHTRKRYECSKCQATFNLRKHLIQHQKTHAAKTTSECQECGKIFRHSSLLIEHQALHAGEEPYKCNERGKSFRHNSTLKIHQRVHSGEKPYKCSECGKAFHRHTHLNEHRRIHTGYRPHKCQECVRSFSRPSHLMRHQAIHTAEKPYSCAECKETFSDNNRLVQHQKMHTVKTPYECQECGERFICGSTLKCHESVHAREKQGFFVSGKILDQNPEQKEKCFKCNKCEKTFSCSKYLTQHERIHTRGVKPFECDQCGKAFGQSTRLIHHQRIHSRVRLYKWGEQGKAISSASLIKLQSFHTKEHPFKCNECGKTFSHSAHLSKHQLIHAGENPFKCSKCDRVFTQRNYLVQHERTHARKKPLVCNECGKTFRQSSCLSKHQRIHSGEKPYVCDYCGKAFGLSAELVRHQRIHTGEKPYVCQECGKAFTQSSCLSIHRRVHTGEKPYRCGECGKAFAQKANLTQHQRIHTGEKPYSCNVCGKAFVLSAHLNQHLRVHTQETLYQCQRCQKAFRCHSSLSRHQRVHNKQQYCL

Variants of B1 are the subject of the first test. Particulars: with gpt2l_human GPATCH2L.
As for S59G, the “effect of a mutation on the interaction” value is reported as “with no effect”.

As for R223C, the “effect of a mutation on the interaction” value was “with no effect”.

Take T654I: the “effect of a mutation on the interaction” value is given as “with no effect”.

With S535N, the “effect of a mutation on the interaction” value is “with no effect”.

As to Y456H, the “effect of a mutation on the interaction” value was “with no effect”.

In a further test the parent is B1. Particulars: with ntf2_human NUTF2, P61970.
Chain of ntf2_human NUTF2, P61970 (P61970 whole entry): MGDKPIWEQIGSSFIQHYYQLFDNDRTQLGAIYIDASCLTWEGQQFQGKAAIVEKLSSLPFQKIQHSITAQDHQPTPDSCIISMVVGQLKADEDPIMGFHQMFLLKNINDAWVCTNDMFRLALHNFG
Consider S59G, for which the “effect of a mutation on the interaction” value is “with no effect”.

The variants in a further test derive from B1. To be noted: with tri41_human TRIM41, Q8WV44.
With S59G, the “effect of a mutation on the interaction” value is given as “with no effect”.

With R223C, the “effect of a mutation on the interaction” value is “with no effect”.

T654I: the “effect of a mutation on the interaction” value is reported as “with no effect”.

Regarding S535N, the “effect of a mutation on the interaction” value was “with no effect”.

Regarding Y456H, the “effect of a mutation on the interaction” value is given as “with no effect”.

In the case of N82S, the “effect of a mutation on the interaction” value was “with no effect”.

A further test covers variants of B1. Particulars: with zn792_human ZNF792, Q3KQV3.
Chain of zn792_human ZNF792, Q3KQV3 (Q3KQV3 whole entry): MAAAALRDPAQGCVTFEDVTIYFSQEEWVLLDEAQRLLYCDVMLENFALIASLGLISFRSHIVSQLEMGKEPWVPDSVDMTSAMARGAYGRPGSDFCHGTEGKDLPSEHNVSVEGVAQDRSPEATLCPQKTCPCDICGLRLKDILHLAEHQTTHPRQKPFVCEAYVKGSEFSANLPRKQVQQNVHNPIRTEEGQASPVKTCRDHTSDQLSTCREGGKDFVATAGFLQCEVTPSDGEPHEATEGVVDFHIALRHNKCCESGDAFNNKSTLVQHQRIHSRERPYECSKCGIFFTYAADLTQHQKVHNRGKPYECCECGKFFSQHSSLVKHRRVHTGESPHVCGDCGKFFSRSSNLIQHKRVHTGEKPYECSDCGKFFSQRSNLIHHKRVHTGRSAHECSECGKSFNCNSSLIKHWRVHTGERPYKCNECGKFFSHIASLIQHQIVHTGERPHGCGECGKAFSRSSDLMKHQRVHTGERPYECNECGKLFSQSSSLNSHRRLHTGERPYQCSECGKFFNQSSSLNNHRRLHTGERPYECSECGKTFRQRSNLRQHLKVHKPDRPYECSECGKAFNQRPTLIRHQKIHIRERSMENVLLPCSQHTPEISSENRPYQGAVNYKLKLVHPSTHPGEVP
With S59G, the “effect of a mutation on the interaction” value is “with no effect”.

T654I: the “effect of a mutation on the interaction” value is recorded as “with no effect”.

A further test covers variants of B1. Particulars: with aen_human AEN.
For S59G, the “effect of a mutation on the interaction” value was “with no effect”.

On to R223C, for which the “effect of a mutation on the interaction” value is on record as “with no effect”.

S535N: the “effect of a mutation on the interaction” value is “with no effect”.

Turning to Y456H, the “effect of a mutation on the interaction” value is reported as “with no effect”.

Regarding N82S, the “effect of a mutation on the interaction” value is reported as “with no effect”.

In a further test the parent is B1. To be noted: with zn792_human ZNF792, Q3KQV3. The source holds these as a separate data set.
Take R223C: the “effect of a mutation on the interaction” value is given as “with no effect”.

As for S535N, the “effect of a mutation on the interaction” value is “with no effect”.

In the case of Y456H, the “effect of a mutation on the interaction” value is “with no effect”.

On to N82S, for which the “effect of a mutation on the interaction” value is “with no effect”.

In a further test the parent is B1. To be noted: with aen_human AEN. This is another data set of the same source.
Turning to T654I, the “effect of a mutation on the interaction” value is given as “with no effect”.
